Test results: article PMC4967814 (2016)

Legend:
Assay in all cases: SPR
recombinant human IFNω = recombinant human IFNω (human, UniProt P05000 22-195)
recombinant human IFNα4 = target: T1, recombinant human IFNα4 (human, UniProt P05014 24-189)
T1 chain: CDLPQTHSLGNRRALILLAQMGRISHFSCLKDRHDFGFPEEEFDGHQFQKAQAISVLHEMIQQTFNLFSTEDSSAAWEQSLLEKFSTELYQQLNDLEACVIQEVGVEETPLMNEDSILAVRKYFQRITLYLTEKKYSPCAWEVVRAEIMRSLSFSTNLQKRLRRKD

recombinant human IFNα14 = target: T2, recombinant human IFNα14 (human, UniProt P01570 24-189)
T2 chain: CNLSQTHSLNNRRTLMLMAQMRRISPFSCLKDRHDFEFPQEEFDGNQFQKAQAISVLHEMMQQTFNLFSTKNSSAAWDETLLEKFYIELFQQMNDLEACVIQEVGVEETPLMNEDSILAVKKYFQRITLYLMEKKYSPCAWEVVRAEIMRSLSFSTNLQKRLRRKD

recombinant human IFNω, sequence (P05000 22-195): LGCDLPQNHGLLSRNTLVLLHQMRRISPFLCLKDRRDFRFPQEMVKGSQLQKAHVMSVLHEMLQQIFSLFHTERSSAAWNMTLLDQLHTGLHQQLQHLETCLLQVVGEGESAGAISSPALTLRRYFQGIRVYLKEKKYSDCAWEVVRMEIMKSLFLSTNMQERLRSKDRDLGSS

B1: 26B9, APS1/APECED patient-derived anti-IFN monoclonal antibody (antibody, V domains shown)
VH: QILLQESGPGLVKPTETLSLTCSVSGDSISDSSHYWAWIRQPPGKGPEWIGSVYFSSMTHYNPSLKSRVSISVDKPKNQFSLKVTSVTVADTATYYCARQALARVGAMNWFDPWGQGSLVTVSS
VL: DIIMTQSPDSLPVSLGEGVTINCKSSQSVFFTSSNKSCLAWYQQKPGKSPKLLIYWASTRQSGVPDRFRGSGSGTDFSLTITSLQAEDVAVYFCQQCQTSPPTFGGGTRLEIK
B1 gave a Kd (recombinant human IFNω) of 0.125 pM and a Kd (recombinant human IFNα4) of 0.0375 pM.

B2: 19D11, APS1/APECED patient-derived anti-IFN monoclonal antibody (antibody, V domains shown)
VH: QVQLVQSGAEVKRPGSSVRVSCRASGDTFSSYPISWVRQAPGQGLEWMGRILPALGVTNYAQNFRGRITITADKSPLTAYLELSSLRFEDTAVYYCASPSADIIPSILGTTLFAFWGQGSLVTVSS
VL: EIVLTQSPGTLSLSPGEGATLSCRASQNVSRHYLTWYQQKPGQSPRLLIYGGSSRATGVPDRFSGGGSGTDFTLTISRLEPEDFAVFYCQSYHSPPPVYTFGQGTKVEIK
For B2, the Kd (recombinant human IFNα4) was 0.263 pM and the Kd (recombinant human IFNα14) was 0.0611 pM.
